Test results taken from patent US20220268787A1 (JW BIOSCIENCE, published 2022).

How the values were obtained:
Test in all cases: indirect ELISA, antigen coated at 1 µg/ml
[1] = biological target: T1, AIMP1 (aminoacyl tRNA synthase complex-interacting multifunctional protein 1) (UniProt Q12904 1-312, limits assumed)
T1 construct: also called p43
T1 sequence (looked up): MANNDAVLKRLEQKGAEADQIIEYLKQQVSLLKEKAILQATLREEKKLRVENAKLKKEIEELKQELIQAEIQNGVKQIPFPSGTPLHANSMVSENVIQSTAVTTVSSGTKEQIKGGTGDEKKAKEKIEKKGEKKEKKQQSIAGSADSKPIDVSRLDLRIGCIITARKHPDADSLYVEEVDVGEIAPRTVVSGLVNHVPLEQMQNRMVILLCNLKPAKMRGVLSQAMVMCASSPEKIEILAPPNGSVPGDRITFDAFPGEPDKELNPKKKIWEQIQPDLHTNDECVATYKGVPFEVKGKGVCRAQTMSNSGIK

[2] = biological target: KRS (lysyl tRNA synthetase) (UniProt Q15046 1-597, limits assumed)
[3] = biological target: T2, GRS (glycyl tRNA synthetase) (UniProt P41250 55-739, limits assumed)
T2 sequence (looked up): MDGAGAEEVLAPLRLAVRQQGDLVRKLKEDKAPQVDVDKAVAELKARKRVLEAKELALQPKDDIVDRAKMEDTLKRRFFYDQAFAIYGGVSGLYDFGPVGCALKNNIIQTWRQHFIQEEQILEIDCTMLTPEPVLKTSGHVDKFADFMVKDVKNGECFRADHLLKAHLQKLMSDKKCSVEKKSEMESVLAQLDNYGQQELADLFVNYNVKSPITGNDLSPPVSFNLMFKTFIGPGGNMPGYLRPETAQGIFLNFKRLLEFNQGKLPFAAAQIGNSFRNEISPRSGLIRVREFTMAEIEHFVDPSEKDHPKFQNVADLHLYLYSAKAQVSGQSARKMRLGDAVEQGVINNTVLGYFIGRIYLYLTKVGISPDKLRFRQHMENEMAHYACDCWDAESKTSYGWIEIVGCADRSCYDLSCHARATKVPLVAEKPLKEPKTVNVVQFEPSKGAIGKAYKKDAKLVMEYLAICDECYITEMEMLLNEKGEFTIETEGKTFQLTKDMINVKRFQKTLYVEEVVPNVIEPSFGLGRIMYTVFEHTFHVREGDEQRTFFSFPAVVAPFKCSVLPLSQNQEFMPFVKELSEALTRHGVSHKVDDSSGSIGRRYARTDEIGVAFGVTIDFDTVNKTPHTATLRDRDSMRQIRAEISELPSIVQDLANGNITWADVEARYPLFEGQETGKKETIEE

[4] = biological target: T3, CRS (cysteinyl-tRNA synthetase) (UniProt P49589 1-748, limits assumed)
T3 sequence (looked up): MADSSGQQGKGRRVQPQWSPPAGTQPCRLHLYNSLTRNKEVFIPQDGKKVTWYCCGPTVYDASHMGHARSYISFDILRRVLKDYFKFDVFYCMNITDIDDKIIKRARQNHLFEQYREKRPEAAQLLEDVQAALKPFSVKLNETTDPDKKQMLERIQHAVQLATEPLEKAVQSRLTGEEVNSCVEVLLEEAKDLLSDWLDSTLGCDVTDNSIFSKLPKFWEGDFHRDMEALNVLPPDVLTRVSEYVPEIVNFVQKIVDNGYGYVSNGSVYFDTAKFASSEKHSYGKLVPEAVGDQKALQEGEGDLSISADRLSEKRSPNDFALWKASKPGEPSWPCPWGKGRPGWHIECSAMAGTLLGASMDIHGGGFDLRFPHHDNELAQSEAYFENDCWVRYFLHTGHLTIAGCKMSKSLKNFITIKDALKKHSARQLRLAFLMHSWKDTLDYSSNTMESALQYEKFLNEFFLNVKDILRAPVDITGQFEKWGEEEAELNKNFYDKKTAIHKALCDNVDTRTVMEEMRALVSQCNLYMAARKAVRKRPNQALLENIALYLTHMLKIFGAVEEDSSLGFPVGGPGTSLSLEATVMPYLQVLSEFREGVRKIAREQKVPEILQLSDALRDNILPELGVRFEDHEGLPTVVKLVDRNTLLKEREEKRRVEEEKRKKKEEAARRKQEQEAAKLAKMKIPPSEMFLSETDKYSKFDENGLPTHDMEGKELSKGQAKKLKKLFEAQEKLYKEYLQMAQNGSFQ

Sequence of KRS (lysyl tRNA synthetase) (Q15046 whole entry): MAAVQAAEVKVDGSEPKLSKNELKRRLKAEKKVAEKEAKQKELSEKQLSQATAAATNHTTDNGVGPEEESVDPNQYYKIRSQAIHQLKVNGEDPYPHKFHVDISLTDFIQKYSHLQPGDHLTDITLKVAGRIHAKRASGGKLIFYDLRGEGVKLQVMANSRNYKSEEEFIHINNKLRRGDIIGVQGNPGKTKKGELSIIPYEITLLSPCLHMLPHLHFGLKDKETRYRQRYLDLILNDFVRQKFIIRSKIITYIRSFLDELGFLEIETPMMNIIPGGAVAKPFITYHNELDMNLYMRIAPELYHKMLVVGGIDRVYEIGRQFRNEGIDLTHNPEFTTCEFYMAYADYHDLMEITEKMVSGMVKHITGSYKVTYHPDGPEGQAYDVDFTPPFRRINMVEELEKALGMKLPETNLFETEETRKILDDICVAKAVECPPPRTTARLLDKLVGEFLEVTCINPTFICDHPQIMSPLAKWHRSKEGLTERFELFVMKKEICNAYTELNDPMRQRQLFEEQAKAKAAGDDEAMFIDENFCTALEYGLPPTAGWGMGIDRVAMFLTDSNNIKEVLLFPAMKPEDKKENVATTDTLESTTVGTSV

binding result [1]: no binding (tested: 500 ng/ml)
binding result [2]: no binding (tested: 500 ng/ml)
binding result [3]: no binding (tested: 500 ng/ml)
binding result [4]: no binding (tested: 500 ng/ml)
B1: 4D10G6 monoclonal antibody (antibody, V domains shown)
VH: EFQLQQSGPELVKPGASVKISCKASGYAFIDYNMNWVKQSNGKSLEWIGVINPNYGTIRYNQKFKGKATLTVDQSSSTAYMQLNSLTSEDSAVYYCAGLLRGYYAMDYWGQGTSVTVSS
VL: QAVVTQESALTTSPGETVTLTCRSSTGAVTTSNYANWVQEKPDHLFTGLIGGTNNRAPGVPARFSGSLIGDKAALTITGAQTEDEAIYFCVLWYSNHWVFGGGTKLTVL
notes: Mouse hybridoma monoclonal (Balb/c), purified from ascites on Protein A or G beads; also called the antibody according to the present invention
